The supplement of paper PMC10724198
± gives the standard deviation of the averaged measurements.

How the values were obtained:
Saccharomyces cerevisiae [1] = experiment: protein stability index of tFT-peptide fusion (C-terminal peptide) (PSI (0-1 scale)); higher = more stable (slower turnover)
Protocol: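 MPS profiling in S. cerevisiae of the tFT-X12 degron library: putative degron peptides plus stable controls, 12 aa, fused to the C-terminus of a sfGFP-mCherry timer. Cells are FACS-sorted into 8 mCherry/sfGFP bins and deep-sequenced. PSI runs from 0 (unstable) to 1 (stable). Backgrounds are wild type, das1Δ and doa10Δ at 30 °C, and wild type, das1Δ, cdc34-1 and cdc53-1 at 37 °C; 2-3 technical replicates each.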

Saccharomyces cerevisiae [2] = experiment: as above; details: genetic background: wild type; temperature: 30 C
[3] = genetic background: cdc34-1, temperature: 37 C
[4] = genetic background: cdc53-1, temperature: 37 C
[5] = genetic background: das1 deletion, temperature: 30 C
[6] = genetic background: das1 deletion, temperature: 37 C
[7] = genetic background: doa10 deletion, temperature: 30 C
[8] = genetic background: wild type, temperature: 30 C
[9] = genetic background: wild type, temperature: 37 C
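Also: PSI is a weighted mean of sequencing reads over stability bins, variants kept only with over 10 reads, mCherry proximal and sfGFP distal, peptide attached via GGGS linker.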

Sequence | protein stability index (Saccharomyces cerevisiae [1]; [3]) | protein stability index (Saccharomyces cerevisiae [1]; [4]) | protein stability index (Saccharomyces cerevisiae [1]; [5]) | protein stability index (Saccharomyces cerevisiae [1]; [6]) | protein stability index (Saccharomyces cerevisiae [1]; [7]) | protein stability index (Saccharomyces cerevisiae [1]; [8]) | protein stability index (Saccharomyces cerevisiae [1]; [9]) | protein stability index (Saccharomyces cerevisiae [2])
AGMLMCLYLFFV | 0.562 ± 0.05 | 0.661 ± 0.047 | 0.467 ± 0.032 | 0.598 ± 0.022 | 0.428 ± 0.0066 | 0.449 ± 0.028 | 0.5673 ± 0.0029 | 0.468 ± 0.027
AIMFLVLGYVFF | 0.262 ± 0.085 | 0.395 ± 0.018 | 0.269 ± 0.03 | 0.462 ± 0.019 | 0.255 ± 0.036 | 0.276 ± 0.027 | 0.452 ± 0.019 | 0.378 ± 0.034
ALCPPLPMLVVA | 0.02987 ± 0.00016 | 0.03 ± 0.0043 | 0.156 ± 0.019 | 0.0912 ± 0.0067 | 0.109 ± 0.01 | 0.137 ± 0.03 | 0.0758 ± 0.0021 | 0.2097 ± 0.00085
ALLMVCFGFSLV | 0.445 ± 0.022 | 0.5162 ± 0.0013 | 0.372 ± 0.032 | 0.527 ± 0.0098 | 0.335 ± 0.009 | 0.367 ± 0.02 | 0.508 ± 0.0078 | 0.422 ± 0.01
ALNFFSLFMLFR | 0.221 ± 0.058 | 0.168 ± 0.07 | 0.325 ± 0.041 | 0.422 ± 0.022 | 0.603 ± 0.0092 | 0.325 ± 0.034 | 0.358 ± 0.022 | 0.398 ± 0.048
ALSRFFSVFLLV | 0.592 ± 0.013 | 0.671 ± 0.009 | 0.55 ± 0.019 | 0.6766 ± 0.0044 | 0.26 ± 0.012 | 0.266 ± 0.03 | 0.454 ± 0.032 | 0.3814 ± 0.00064
ASVCLNVIYQLV | 0.515 ± 0.024 | 0.451 ± 0.0053 | 0.288 ± 0.027 | 0.471 ± 0.013 | 0.1572 ± 0.0011 | 0.164 ± 0.018 | 0.222 ± 0.024 | 0.268 ± 0.036
AVLFAPPLSSNF | 0.712 ± 0.03 | 0.78169 ± 0.00024 | 0.64 ± 0.014 | 0.7729 ± 0.0067 | 0.657 ± 0.026 | 0.6489 ± 0.0039 | 0.739 ± 0.0078 | 0.729 ± 0.052
AVSFVTLSIMVM | 0.0451 ± 0.007 | 0.0958 ± 0.092 | 0.153 ± 0.016 | 0.163 ± 0.0065 | 0.135 ± 0.005 | 0.157 ± 0.018 | 0.1217 ± 0.0011 | 0.195 ± 0.032
AWVEVYVISIGV | 0.192 ± 0.024 | 0.257 ± 0.0074 | 0.161 ± 0.022 | 0.324 ± 0.012 | 0.132 ± 0.0032 | 0.153 ± 0.011 | 0.2966 ± 0.0016 | 0.19 ± 0.032
CAGLLSVSFWLF | 0.516 ± 0.024 | 0.589 ± 0.037 | 0.44 ± 0.033 | 0.597 ± 0.022 | 0.351 ± 0.0039 | 0.381 ± 0.017 | 0.552 ± 0.0056 | 0.499 ± 0.0012
CFATTCLRCKWV | 0.692 ± 0.038 | 0.738 ± 0.035 | 0.645 ± 0.033 | 0.739 ± 0.028 | 0.425 ± 0.011 | 0.459 ± 0.022 | 0.631 ± 0.027 | 0.484 ± 0.014
CFCVSVHVWLLM | 0.112 ± 0.028 | 0.238 ± 0.046 | 0.199 ± 0.038 | 0.342 ± 0.017 | 0.0493 ± 0.017 | 0.069 ± 0.018 | 0.105 ± 0.017 | 0.147 ± 0.04
CFFLLLRVSLFP | 0.08149 ± 0.00038 | 0.112 ± 0.024 | 0.143 ± 0.032 | 0.257 ± 0.0087 | 0.142 ± 0.0027 | 0.145 ± 0.025 | 0.218 ± 0.011 | 0.239 ± 0.028
CFSLLFYTLSLL | 0.47 ± 0.029 | 0.499 ± 0.0054 | 0.393 ± 0.022 | 0.5305 ± 0.0034 | 0.2695 ± 0.00095 | 0.274 ± 0.021 | 0.409 ± 0.0057 | 0.351 ± 0.018
CFVICVCLCFGR | 0.229 ± 0.044 | 0.3626 ± 0.002 | 0.232 ± 0.018 | 0.416 ± 0.015 | 0.206 ± 0.0033 | 0.21 ± 0.026 | 0.371 ± 0.0092 | 0.35 ± 0.025
CGSLDLPHQCLL | 0.7247 ± 0.0066 | 0.7844 ± 0.0062 | 0.677 ± 0.0093 | 0.7545 ± 0.0062 | 0.691 ± 0.048 | 0.693 ± 0.01 | 0.774 ± 0.0033 | 0.744 ± 0.059
CICAFCSLNLLC | 0.695 ± 0.01 | 0.774 ± 0.016 | 0.61 ± 0.012 | 0.765 ± 0.011 | 0.289 ± 0.0064 | 0.324 ± 0.023 | 0.607 ± 0.013 | 0.435 ± 0.011
CIHMNCSMMIIS | 0.0533 ± 0.045 | 0.084 ± 0.0027 | 0.168 ± 0.0061 | 0.0659 ± 0.029 | 0.169 ± 0.0045 | 0.132 ± 0.036 | 0.0482 ± 0.035 | 0.135 ± 0.0034
CKGPPVKFIVLM | 0.614 ± 0.018 | 0.7111 ± 0.0044 | 0.597 ± 0.03 | 0.7359 ± 0.0039 | 0.135 ± 0.0034 | 0.147 ± 0.028 | 0.243 ± 0.023 | 0.225 ± 0.057

Sequence | protein stability index (Saccharomyces cerevisiae [1]; [3]) | protein stability index (Saccharomyces cerevisiae [1]; [4]) | protein stability index (Saccharomyces cerevisiae [1]; [5]) | protein stability index (Saccharomyces cerevisiae [1]; [6]) | protein stability index (Saccharomyces cerevisiae [1]; [7]) | protein stability index (Saccharomyces cerevisiae [1]; [8]) | protein stability index (Saccharomyces cerevisiae [1]; [9]) | protein stability index (Saccharomyces cerevisiae [2])
CKYCKCVVLLWS | 0.53 ± 0.052 | 0.605 ± 0.013 | 0.385 ± 0.037 | 0.6012 ± 0.00065 | 0.2932 ± 0.0013 | 0.334 ± 0.034 | 0.536 ± 0.01 | 0.434 ± 0.037
CLFFLVYELSIL | 0.256 ± 0.017 | 0.352 ± 0.048 | 0.257 ± 0.023 | 0.434 ± 0.016 | 0.2162 ± 0.00051 | 0.246 ± 0.0069 | 0.387 ± 0.0045 | 0.317 ± 0.021
CLQYRACLILLT | 0.406 ± 0.014 | 0.3653 ± 0.0014 | 0.365 ± 0.015 | 0.494 ± 0.0041 | 0.456 ± 0.0093 | 0.343 ± 0.015 | 0.425 ± 0.0086 | 0.425 ± 0.0091
CLSGPFRSLAVF | 0.545 ± 0.029 | 0.6286 ± 0.0025 | 0.485 ± 0.031 | 0.6326 ± 0.0051 | 0.341 ± 0.009 | 0.365 ± 0.023 | 0.5263 ± 0.0018 | 0.425 ± 0.038
CMILVACFYLPS | 0.285 ± 0.033 | 0.441 ± 0.061 | 0.29 ± 0.024 | 0.455 ± 0.017 | 0.248 ± 0.0063 | 0.294 ± 0.017 | 0.428 ± 0.01 | 0.321 ± 0.004
CMYTILRHKINN | 0.628 ± 0.047 | 0.621 ± 0.075 | 0.649 ± 0.024 | 0.763 ± 0.023 | 0.129 ± 0.036 | 0.147 ± 0.058 | 0.279 ± 0.029 | 0.296 ± 0.054
CPVSRHLLVLYW | 0.413 ± 0.0094 | 0.4424 ± 0.0029 | 0.345 ± 0.029 | 0.4933 ± 0.0031 | 0.402 ± 0.017 | 0.331 ± 0.019 | 0.47 ± 0.012 | 0.432 ± 0.029
CQVSEWIRYRFL | 0.681 ± 0.074 | 0.743 ± 0.01 | 0.637 ± 0.034 | 0.734 ± 0.018 | 0.247 ± 0.0032 | 0.252 ± 0.0098 | 0.386 ± 0.016 | 0.417 ± 0.02
CRAAMYSFFLNF | 0.674 ± 0.063 | 0.75 ± 0.017 | 0.651 ± 0.037 | 0.7584 ± 0.0043 | 0.236 ± 0.0046 | 0.299 ± 0.0089 | 0.529 ± 0.022 | 0.427 ± 0.025
CRLFFVFVFFWW | 0.22 ± 0.04 | 0.179 ± 0.024 | 0.253 ± 0.03 | 0.322 ± 0.0059 | 0.311 ± 0.01 | 0.249 ± 0.022 | 0.274 ± 0.023 | 0.253 ± 0.095
CSFCSGMILLLS | 0.522 ± 0.055 | 0.557 ± 0.018 | 0.433 ± 0.02 | 0.583 ± 0.0064 | 0.391 ± 0.004 | 0.323 ± 0.044 | 0.527 ± 0.028 | 0.418 ± 0.0062
CTAWWVKGVAVK | 0.622 ± 0.033 | 0.6395 ± 0.0018 | 0.443 ± 0.031 | 0.643 ± 0.023 | 0.424 ± 0.028 | 0.435 ± 0.018 | 0.624 ± 0.029 | 0.525 ± 0.049
CVILVSFFCYSA | 0.142 ± 0.021 | 0.221 ± 0.014 | 0.142 ± 0.059 | 0.322 ± 0.0071 | 0.119 ± 0.0041 | 0.132 ± 0.059 | 0.284 ± 0.0073 | 0.2201 ± 0.00089
CVLLVFLHLCLA | 0.292 ± 0.0051 | 0.392 ± 0.022 | 0.283 ± 0.027 | 0.4448 ± 0.0025 | 0.256 ± 0.014 | 0.263 ± 0.049 | 0.402 ± 0.0075 | 0.381 ± 0.0019
CVLVLLLRLAFL | 0.5506 ± 0.0053 | 0.5516 ± 0.0013 | 0.44 ± 0.032 | 0.5995 ± 0.0041 | 0.467 ± 0.027 | 0.434 ± 0.0093 | 0.561 ± 0.015 | 0.4885 ± 0.0022
CWILLFGCVWVG | 0.1785 ± 0.0003 | 0.335 ± 0.049 | 0.233 ± 0.023 | 0.397 ± 0.033 | 0.221 ± 0.015 | 0.234 ± 0.0095 | 0.336 ± 0.037 | 0.263 ± 0.0084
CWSSVGLSVCGC | 0.676 ± 0.026 | 0.7508 ± 0.0058 | 0.619 ± 0.031 | 0.7193 ± 0.0065 | 0.597 ± 0.037 | 0.599 ± 0.012 | 0.693 ± 0.024 | 0.601 ± 0.16
CWYRAVSIQYVL | 0.435 ± 0.027 | 0.53 ± 0.025 | 0.367 ± 0.0057 | 0.466 ± 0.021 | 0.26 ± 0.03 | 0.272 ± 0.027 | 0.412 ± 0.0089 | 0.306 ± 0.015
DFWMLLFGIIFA | 0.488 ± 0.041 | 0.521 ± 0.011 | 0.389 ± 0.027 | 0.565 ± 0.033 | 0.387 ± 0.015 | 0.4 ± 0.027 | 0.538 ± 0.017 | 0.449 ± 0.019
